Key:
[1] = molecular target: ErNaR, NDQ rhodopsin (light-driven sodium pump) from Erythrobacter sp. HL-111 (Erythrobacter sp. HL-111); assay: SEC; detergent-solubilized ErNaR, pH 2.3
[2] = molecular target: ErNaR, NDQ rhodopsin (light-driven sodium pump) from Erythrobacter sp. HL-111 (Erythrobacter sp. HL-111); assay: SEC; detergent-solubilized ErNaR, pH 8.0
[3] = molecular target: ErNaR, NDQ rhodopsin (light-driven sodium pump) from Erythrobacter sp. HL-111 (Erythrobacter sp. HL-111); assay: cryo-EM structure; single particle; 20 mM Tris pH 8.0, 200 mM NaCl, 0.05% DDM; C5 symmetry; 2.63 Å
[4] = molecular target: ErNaR, NDQ rhodopsin (light-driven sodium pump) from Erythrobacter sp. HL-111 (Erythrobacter sp. HL-111); assay: cryo-EM structure; single particle; 100 mM sodium acetate pH 4.3, 200 mM NaCl, 0.05% DDM; C5 symmetry; 2.50 Å

Measured: stoichiometry N

ErNaR, NDQ rhodopsin (light-driven sodium pump) from Erythrobacter sp. HL-111 (natural protein)
5: all assays above

— PMC11006869
